The assay has as its target fluorescein-labeled Fc-III (Fluorescein-Ahx-…-NH2). Briefly: other fluorescence titration.

In the case of “human IgG1 adalimumab biosimilar Exemptia (antibody)”, the fold increase of fluorescence intensity at 2.5 g/L is 1.8 fold and the limit of detection by fluorescence intensity was 0.0001 g/L.
murine IgG1 (antibody) registered a limit of detection by fluorescence intensity of 0.1 g/L.
